Earlier results as cited in publication PMC7555924.

Assays:
Cys94 = Cys94 (UniProt position 94, GSRNLCNIPCS); settings: fully reduced (all disulfides cleaved), molten globule-like conformation
Cys75 = Cys75 (UniProt position 99, FGDELCKVASL); settings: fully reduced (all disulfides cleaved), molten globule-like conformation
Cys47 = Cys47 (UniProt position 48, SLKASCLYGQL); settings: not stated (the Cys47 thiolate is described as ion-paired with Lys54)
Cys95 = Cys95 (UniProt position 121, SKYPNCAYKTT); settings: fully reduced (all disulfides cleaved), molten globule-like conformation
Cys1 = Cys1 (UniProt position 1, -----CGVPAI); settings: fully reduced (all disulfides cleaved), molten globule-like conformation

Substance: Lysozyme C (reduced, rLyz) (Gallus gallus)
- pKa (Cys94): 6.6

Substance: Serum albumin (reduced, rBSA) (Bos taurus)
- pKa (Cys75): 6.6

Substance: Glutathione S-transferase P1-1 (GSTP1-1) (Homo sapiens)
- pKa (Cys47): 3.5

Substance: Ribonuclease A (reduced, rRNase) (Bos taurus)
- pKa (Cys95): 7.9

Substance: Chymotrypsinogen A (reduced, rChTg) (Bos taurus)
- pKa (Cys1): 8.1
